± gives the standard deviation of the averaged measurements.
Experiments:
Saccharomyces cerevisiae [1] = experiment: protein stability index of tFT-peptide fusion (C-terminal peptide) (PSI (0-1 scale)); higher = more stable (slower turnover)
Description: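 MPS profiling in S. cerevisiae of the tFT-X12 degron library: putative degron peptides plus stable controls, 12 aa, fused to the C-terminus of a sfGFP-mCherry timer. Cells are FACS-sorted into 8 mCherry/sfGFP bins and deep-sequenced. PSI runs from 0 (unstable) to 1 (stable). Backgrounds are wild type, das1Δ and doa10Δ at 30 °C, and wild type, das1Δ, cdc34-1 and cdc53-1 at 37 °C; 2-3 technical replicates each.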

Saccharomyces cerevisiae [2] = experiment: as above; conditions: genetic background: wild type; temperature: 30 C
[3] = genetic background: cdc34-1, temperature: 37 C
[4] = genetic background: cdc53-1, temperature: 37 C
[5] = genetic background: das1 deletion, temperature: 30 C
[6] = genetic background: das1 deletion, temperature: 37 C
[7] = genetic background: doa10 deletion, temperature: 30 C
[8] = genetic background: wild type, temperature: 30 C
[9] = genetic background: wild type, temperature: 37 C
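Further: PSI is a weighted mean of sequencing reads over stability bins, variants kept only with over 10 reads, mCherry proximal and sfGFP distal, peptide attached via GGGS linker.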

Sequence | protein stability index (Saccharomyces cerevisiae [1]; [3]) | protein stability index (Saccharomyces cerevisiae [1]; [4]) | protein stability index (Saccharomyces cerevisiae [1]; [5]) | protein stability index (Saccharomyces cerevisiae [1]; [6]) | protein stability index (Saccharomyces cerevisiae [1]; [7]) | protein stability index (Saccharomyces cerevisiae [1]; [8]) | protein stability index (Saccharomyces cerevisiae [1]; [9]) | protein stability index (Saccharomyces cerevisiae [2])
VFLCVRLGFIFL | 0.419 ± 0.0062 | 0.486 ± 0.0065 | 0.359 ± 0.029 | 0.529 ± 0.012 | 0.404 ± 0.02 | 0.352 ± 0.023 | 0.471 ± 0.023 | 0.446 ± 0.026
LHIHGAGIVCAG | 0.549 ± 0.026 | 0.584 ± 0.029 | 0.368 ± 0.032 | 0.5788 ± 0.001 | 0.318 ± 0.0044 | 0.374 ± 0.029 | 0.5491 ± 0.0022 | 0.467 ± 0.028
GGGGMGRRVGVG | 0.361 ± 0.036 | 0.4177 ± 0.0019 | 0.396 ± 0.0093 | 0.4202 ± 0.0022 | 0.4009 ± 0.0015 | 0.398 ± 0.011 | 0.415 ± 0.0084 | 
TWGGGRVSLGGG | 0.316 ± 0.038 | 0.4048 ± 0.0019 | 0.361 ± 0.013 | 0.4176 ± 0.0019 | 0.363 ± 0.01 | 0.364 ± 0.017 | 0.407 ± 0.028 | 
YVLLDFFFFFLV | 0.216 ± 0.044 | 0.329 ± 0.029 | 0.24 ± 0.017 | 0.356 ± 0.043 | 0.211 ± 0.0032 | 0.182 ± 0.06 | 0.255 ± 0.032 | 
VCNSIPLTPPPA | 0.679 ± 0.031 | 0.7272 ± 0.0045 | 0.618 ± 0.025 | 0.716 ± 0.015 | 0.6171 ± 0.00098 | 0.641 ± 0.026 | 0.703 ± 0.033 | 
LSPRPPAPYYSP | 0.657 ± 0.067 | 0.733 ± 0.0089 | 0.662 ± 0.041 | 0.725 ± 0.014 | 0.676 ± 0.03 | 0.662 ± 0.028 | 0.7271 ± 0.0069 | 
ALRLPPPPFSLY | 0.677 ± 0.045 | 0.757 ± 0.025 | 0.561 ± 0.05 | 0.72 ± 0.035 | 0.174 ± 0.0065 | 0.237 ± 0.036 | 0.461 ± 0.023 | 
LCLPLYIRILSF | 0.0413 ± 0.0034 | 0.052 ± 0.0091 | 0.145 ± 0.03 | 0.18258 ± 1.6e-05 | 0.161 ± 0.0023 | 0.129 ± 0.016 | 0.126 ± 0.013 | 
AQCRGGGLSGVG | 0.572 ± 0.023 | 0.6409 ± 0.0041 | 0.566 ± 0.016 | 0.615 ± 0.014 | 0.57 ± 0.013 | 0.562 ± 0.011 | 0.603 ± 0.02 | 
VSGSFRVCFRVW | 0.612 ± 0.048 | 0.629 ± 0.0076 | 0.521 ± 0.032 | 0.608 ± 0.015 | 0.538 ± 0.024 | 0.517 ± 0.012 | 0.5981 ± 0.004 | 
VSGITLPFLMFH | 0.287 ± 0.055 | 0.242 ± 0.034 | 0.348 ± 0.022 | 0.458 ± 0.012 | 0.635 ± 0.0033 | 0.329 ± 0.063 | 0.426 ± 0.0043 | 
PSPHRAPPGGHP | 0.68 ± 0.059 | 0.699 ± 0.026 | 0.6636 ± 0.0019 | 0.7271 ± 0.0067 | 0.673 ± 0.03 | 0.688 ± 0.04 | 0.701 ± 0.0029 | 
SVPCWVFLFCLA | 0.349 ± 0.01 | 0.416 ± 0.028 | 0.281 ± 0.03 | 0.462 ± 0.02 | 0.184 ± 0.016 | 0.227 ± 0.025 | 0.4033 ± 0.0033 | 
APPSFPPLLLLS | 0.664 ± 0.028 | 0.697 ± 0.038 | 0.6054 ± 0.002 | 0.71 ± 0.016 | 0.254 ± 0.018 | 0.286 ± 0.017 | 0.499 ± 0.034 | 
RKKIRTYINENV | 0.686 ± 0.079 | 0.699 ± 0.038 | 0.612 ± 0.018 | 0.766 ± 0.05 | 0.271 ± 0.018 | 0.334 ± 0.04 | 0.568 ± 0.015 | 
GFLGMFFFWFAL | 0.588 ± 0.0078 | 0.648 ± 0.05 | 0.4628 ± 0.0043 | 0.635 ± 0.011 | 0.461 ± 0.012 | 0.473 ± 0.022 | 0.579 ± 0.018 | 
CLCLICFLCWFA | 0.475 ± 0.037 | 0.546 ± 0.012 | 0.408 ± 0.0097 | 0.514 ± 0.0052 | 0.387 ± 0.01 | 0.384 ± 0.038 | 0.4958 ± 0.0039 | 
RPPPTPRSVLLN | 0.67 ± 0.021 | 0.7154 ± 0.0015 | 0.668 ± 0.011 | 0.71 ± 0.038 | 0.265 ± 0.024 | 0.286 ± 0.024 | 0.506 ± 0.011 | 
VWWWGGVGWLMV | 0.571 ± 0.047 | 0.601 ± 0.026 | 0.52 ± 0.01 | 0.625 ± 0.025 | 0.386 ± 0.015 | 0.412 ± 0.019 | 0.544 ± 0.012 | 

— the supplement of paper PMC10724198
